Laboratory results: paper PMC5814282, “Biophysical studies and NMR structure of YAP2 WW domain - LATS1 PPxY motif complexes reveal the basis of their interaction” (Oncotarget, 2018)

B1: YAP2 WW12 (both WW domains; aa 163-266) (domain or fragment, human, UniProt P46937-2 163-266, looked up)
chain: SSFEIPDDVPLPAGWEMAKTSSGQRYFLNHIDQTTTWQDPRKAMLSQMNVTAPTSPPVQQNMMNSASGPLPDGWEQAMTQDGEIYYINHKNKTTSWLDPRLDPR
notes: YES-associated protein, isoform YAP2 (YAP1-2), human, both WW domains, aa 163-266; cloned into pGEX-6P-1; 15N-labelled in one of the NMR titrations; source: also co-expressed with PY12 and co-purified
B2: LATS1 PPxY2 peptide mutant Q to A (peptide)
peptide: NYAGPPPPYPKH
notes: LATS1 PPxY2 peptide aa 551-562 with the Q at P1-3 changed to A; also called PPxY2m; PPxY2 Q→A; source: synthetic peptide, bought: GL BioChem
B3: LATS1 PPxY1 peptide mutant R to A (peptide)
peptide: NAQPPPPYPLTA
notes: also called PPxY1m; PPxY1R→A; source: synthetic peptide, bought: GL BioChem

Legend:
[1] = target: T1, LATS1 PY12 (both PPxY motifs; aa 361-567) (UniProt O95835 361-567); test: ITC; WW12 vs PY12; 20 mM Tris-HCl pH 7.0, 100 mM NaCl, 3% glycerol, 2 mM DTT, 2 mM EDTA; single ligand binding site model; conditions: both partners purified
T1 construct: LATS1, region with both PPxY motifs, aa 361-567; cloned into pACYC; 15N-labelled in one of the NMR titrations; source: E. coli BL21 (DE3), purified
T1 sequence (looked up): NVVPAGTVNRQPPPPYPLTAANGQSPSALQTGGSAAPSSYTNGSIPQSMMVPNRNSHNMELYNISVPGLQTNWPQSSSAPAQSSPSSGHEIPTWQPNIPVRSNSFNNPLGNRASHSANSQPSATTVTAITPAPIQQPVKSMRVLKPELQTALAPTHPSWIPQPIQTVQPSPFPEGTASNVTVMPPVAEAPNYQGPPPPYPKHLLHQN

[2] = target: T2, YAP2 WW1 domain (aa 163-206) (human, UniProt P46937-2 163-206); test: ITC; protein 20 to 70 uM titrated against peptide 0.5 to 1.8 mM, 25°C, 20 mM Tris-HCl pH 7.0, 100 mM NaCl; single ligand binding site model; conditions: both partners purified
T2 construct: YES-associated protein, isoform YAP2 (YAP1-2, two WW domains), human, first WW domain, aa 163-206; cloned into pGEX-6P-1

Binder	Kd [1] [µM]	Kd [2] [µM]
B1	9.6	–
B2	–	4.4
B3	–	14
